Measured values published in the supplement of paper PMC9170038.

These sequences were tested on MS2 coat protein (assay: apparent KD of MS2 coat protein, switch OFF state (with FMN for OFF switches, without FMN for ON switches); designed switch direction (-1 OFF switch, 1 ON switch): -1; higher = weaker reporter binding). Conditions: FMN input: 0 or 200 uM; Eterna round: R93 (includes R88 designs).
How it was run: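 Values are apparent KD, taken as the median for each design of fits to normalised binding curves from individual clusters. The designed RNA switches were transcribed on-chip from Illumina sequencing clusters and exposed to SNAP-549-labelled MS2 coat protein at twofold increasing amounts from 0.7 or 1.5 nM to 3 µM. Titration used 100 mM Tris-HCl pH 7.5, 80 mM KCl and 4 mM MgCl2, without or with constant ligand.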

Sequence | apparent KD of MS2 coat protein
AUAAAACAUGAGGAUCACCCAUGUGAGGAUAUCCAAAAAGAAAGAAAAAAAAAAAAAAGGAGAAGGCACAAUAA [Amethyst 46] | 46.7 nM
AAAGUACGAGGAUAUACAUAGAUACAGAUACAUGUAGACGUACAUGAGGAUCACCCAUGUAGAAGGCGUACAUA [Mat - Same state - Mayanna Mod - D115] | 74.7 nM
AAAAAUCGAGGAUAUACAUGAGGAUCACCCAUGUGGGACCAAGAAAACACAAAAGAAAGUAGAAGGCGAUAAAA [Ex 3 May 23] | 76.4 nM
AGCAGUACAGGAUAUACAUGAGGAUCACCCAUGUGAAAAGAAAGUGGCGUACCACAAAGUAGAAGGGUACUGCA [Mat - Exclusion 3 - JL mod - D33] | 180 nM
ACAAGAUCAGGAUAUACAUGAGGAUCACCCAUGUAUAAAAAAAAAGGGCCUUCUACAUGUAGAAGGGAUCUUGU [EX3 290: Random 26] | 19.9 nM
GAAAGGGCAGGAUAUGCAGAGAGAGAGAGAGAGAGAAAAAAACAUGAGGAUCACCCAUGUAGAAGGGCCGAAAG [salish99-ex2-06] | 52.4 nM
AUAAGUCGAGGAUAUACGAAAAGCUAGCGAAAGCUAGCGGGACAUGAGGAUCACCCAUGUAGAAGGCGACAAUA [Tetraloop hairpin BlockHead... 61% 5] | 57 nM
CUCUUGUGAGGAUAUUGAAGAAAAGAAAAGAAAGAAAAGAACAAGAAGGCACAUGAGGAUCACCCAUGUAAGAA [EteRNA is fun!] | 36.5 nM
AGCUAGUGAGGAUAUACGAACAUGUCAACAGACUGUAAGGGACAUGAGGAUCACCCAUGUAGAAGGCACUAGCA [Diamond 56] | 174 nM
AGGAAACAUGAGGAUCACCCAUGUGAGGAUAUGAACGAAAUAAAAUAAAAAUAAAAGUUCAGAAGGCAUAAAAA [Mat - Exclusion 1 - Eli mod - D7] | 24.4 nM
CACGUACAUGAGGAUCACCCAUGUUAGGAUAUGCCGGGUAAGAGAAAACAAAAAAUCAGCAGAAGGGACGAAAC [Bilbo Confounded 17 - Jieux - Exclusion 1] | 31.8 nM
AAGACUAGAGGAUAUACAUGAGGAUCACCCAUGUAACUGUCAGAAAACUGACGGAGAAGUAGAAGGCUAGUCAA [Mat - Exclusion 3 - JL mod - D86] | 21.2 nM
AAAAAGUGAGGAUAUGAAAAUAAAAAAAAAAAAAAAAUAAAUCAGAAGGCACAUGAGGAUCACCCAUGUAAAAA [JR_Exc004_Sub1201] | 38 nM
GGUUGGCGAGGAUAUACAUGAGGAUCACCCAUGUGAGAGAAAAAAGUGAGAAAGAUAAGUAGAAGGCGCUGACG [salish99-ex3-39] | 169 nM
AACAGUACAGGAUAUACAUGAGGAUCACCCAUGUGAUAUAAAUAAAACAAAAAUAAAAGUAGAAGGGUACUGGA [Ruby 44] | 70.8 nM
AAAGGGUCAGGAUAUUGAUUAAUAAUAAAAUAAAUAAAGAUCAAGAAGGGACAUGAGGAUCACCCAUGUAUAAA [May 78] | 63 nM
AAAAAUGCAGGAUAUACGAACAUGUCGAAAGACGUGAAGGGACAUGAGGAUCACCCAUGUAGAAGGGUAAAGAA [Mat - Exclusion 2 - JL mod - D74] | 62.5 nM
AUAAAACAUGAGGAUCACCCAUGUGAGGAUAUGCGAAACAAACAAACAAACAAACAAAGCAGAAGGCACAAUAA [Amethyst 9] | 24.6 nM
AGAAACCUAGGAUAUACAUGAGGAUCACCCAUGUAAAGAAAGAGGAGAGCCACAAGAAGUAGAAGGAGGAAGAA [JR_Exc003_Sub006] | 34.9 nM
GGGUACGCAGGAUAUACAUGAAAAAAAAAAAAAAAAAAAAAACAUGAGGAUCACCCAUGUAGAAGGGCGUAUCC [hsl_exclusion2] | 314 nM
AAAAUGUCAGGAUAUGCGAAGGCGUCUGAUAGACGAGGCUAGCAGAAGGGACAUGAGGAUCACCCAUGUAAAAA [Power strip] | 179 nM
AAUUCACAUGAGGAUCACCCAUGUAAGGAUAUCGAAAUAAAACUAAACAAAAAACAAACGAGAAGGUACAAAAA [Exclusion 1 design 6] | 23.3 nM

Sequence | apparent KD of MS2 coat protein
AAAAAGUGAGGAUAUACAUGAGGAUCACCCAUGUGAAAUCGGAAAAAAAAGGAAAAAAGUAGAAGGCACAAAAA [Mat - Mod of Eli] | 19.3 nM
AAAAAGAAAGGAUAUACGAACAUGUCGAAAGACGUGAAGGGACAUGAGGAUCACCCAUGUAGAAGGUUUAAAAA [Mat - Exclusion 2 - JL mod - D82] | 17.9 nM
AAAGUGUCAGGAUAUGCUGCUCGUCACGAAAGUGAUGAGUAGCAGAAGGGACAUGAGGAUCACCCAUGUAAAGA [Exclusion 4.1d (Exclusion4-cac2 - mutated U at 5 and G at 4)] | 205 nM
AUAGUACAUGAGGAUCACCCAUGUCAGGAUAUCGGAUAUGACAUGAAAAAAAUGUUAACGAGAAGGGACUAUAA [EX1 Malc#18] | 49.8 nM
AAAAAGUCAGGAUAUACGUACAUGUCGAAAGACGUGAAGGGACAUGAGGAUCACCCAUGUAGAAGGGACAAGAA [Mat - Exclusion 2 - JL mod - D78] | 91.8 nM
AACAGUACAGGAUAUACAUGAGGAUCACCCAUGUGAAGAUUAAGAAGAAACCCACAAAGUAGAAGGGUACUGGA [Ruby 92] | 47.4 nM
AAGAAGUCAGGAUAUCGAAGACUGUCGAAAAGACAGUCGAACGAGAAGGGACAUGAGGAUCACCCAUGUGGAAG [Mat - Exaclusion 4 - Eli mod - D72] | 321 nM
AAAAAACAUGAGGAUCACCCAUGUAAGGAUAUGCUGAAAAACACGGAAAAACGUGACAGCAGAAGGUACAAAAA [66%, Wbt, 32] | 30.4 nM
AAAAAGUCAGGAUAUACGAAAGUGCGAAAGCACAAAAGGAAACAUGAGGAUCACCCAUGUAGAAGGGACAAGAA [Married to this design, 61% 1] | 32.8 nM
AAAAAACAUGAGGAUCACCCAUGUGAGGAUAUGCAAAACCCAUAUAAAAAGGGAAAAAGCAGAAGGUACAAAAA [Starry Exclusion 1.2 (wbt round 1 mod)] | 21.3 nM
AAAAAGCUAGGAUAUACGAAAAAAAAGGGUAAAAUAAAUAAACAUGAGGAUCACCCAUGUAGAAGGAGCAAAAA [Mat - Exclusion 2 - Tesla mod - D37] | 38.3 nM
AGAAAGUGAGGAUAUACAUGAGGAUCACCCAUGUAGAACGAGAGUUAUAAAAAUGGAAGUAGAAGGCACAAAAG [Meechl MS2 Ex3] | 32.8 nM
AGGAAACAUGAGGAUCACCCAUGUCAGGAUAUAUGAAAGAAAAGAAAAGAAAGAAGAAGUAGAAGGGACAAGAA [Ka] | 29.9 nM
AAAUAGCAAGGAUAUACAUGAGGAUCACCCAUGUAAAAAUGGAAAGUAAUAAAAUAAAGUAGAAGGUGCAAAUA [Ex 3 Tesla 3] | 37 nM
AAAAAAUGAGGAUAUACAUGAAAAAAAAAAAAAAAAAAAAAACAUGAGGAUCACCCAUGUAGAAGGCGUAAAAA [Flexi GU!] | 29 nM
AAAGUGUGAGGAUAUGCGAAAGGACACGAAAGUGACAAAGAGCAGAAGGUACAUGAGGAUCACCCAUGUAAAAA [milkweed 19] | 20.4 nM
AACAGUAGAGGAUAUACAUGAGGAUCACCCAUGUGAGAAACCACUGGCGUACCAGAAAGUAGAAGGCUACUGGA [Moding Maslow Revisited (73) 30] | 34.6 nM
AAAAAAGGAGGAUAUACGAACAUGUCAAAAGACGUGAAGGGACAUGAGGAUCACCCAUGUAGAAGGUUUAAAAA [JL Wide Open 32] | 15 nM
AGGGAGUGAGGAUAUCCGAAAAAAAAACAACGAAAAAAAGAGGAGAAGGCACAUGAGGAUCACCCAUGUAAGAA [milkweed 15] | 28.6 nM
AACAAGACAGGAUAUACAUGAGGAUCACCCAUGUGAGAAUUAAGUGGCGUAACACAAAGUAGAAGGGUCAUGGA [Ruby 4] | 56.2 nM
AGCACGUCAGGAUAUACGAAAAAAAAGGGUAAAAAAAAGGGACAUGAGGAUCACCCAUGUAGAAGGGACAAGCA [Diamond 93] | 172 nM
AAAAAGCGAGGAUAUACAUGAGGAUCACCCAUGUCAAACGGUAAGACCGCAGGAAAAAGUAGAAGGCGCAAAAA [Exclusion3-02] | 96.8 nM
